According to the supplement of paper PMC6757056:
± gives the standard deviation of the averaged measurements.

B1: library; a variant is named by its letters at N, in order (parent)
chain: GCUGUCACCGGUGCUUGGUACGUUAUAUUCAGCCGGUCUGAUGAGUCUNNNNNNAGACGAAACAGC

Columns and labels:
(6R,S)-folinic acid [1] = variants of: B1; experiment: normalized RNA/DNA level without ligand (relative to sTRSVctl = 100) (log10 (% of sTRSVctl)); HEK293T overexpressing SLC46A1; higher = less ribozyme self-cleavage, higher mRNA level; settings: without (6R,S)-folinic acid; ligand present: no
Procedure, shortened: (§1)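 Ribozyme switch library plasmids linked to reporters were introduced into HEK293T cells at 4 µg per 6-well well, with ligand, if any, added 1 h before. Total RNA was extracted with EDTA 72 h later, reverse-transcribed, amplified, barcoded and sequenced. RNA level was computed from RNA over DNA reads relative to a spiked-in non-cleaving sequence or the top sequences, then scaled and log-transformed. The top set was 25 sequences, values were ×100 and log10, and the cutoff was ≥100 DNA reads.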

(6R,S)-folinic acid [2] = variants of: B1; experiment: normalized RNA/DNA level with ligand (relative to sTRSVctl = 100) (log10 (% of sTRSVctl)); HEK293T overexpressing SLC46A1; ligand concentration (+) RNA-Seq: 6 mM; higher = less ribozyme self-cleavage, higher mRNA level; settings: with (6R,S)-folinic acid; ligand present: yes
Procedure, shortened: as §1

Variant | normalized RNA/DNA level without ligand (log10) ((6R,S)-folinic acid [1]) | normalized RNA/DNA level with ligand (log10) ((6R,S)-folinic acid [2])
GGAGUC | 2.02 ± 0.023 | 2.01 ± 0.024
GGAGUG | 1.915 ± 0.004 | 2.01 ± 0.029
GGAGUU | 2.011 ± 0.0026 | 2.05 ± 0.039
AGCGAU | 1.982 ± 0.0033 | 2 ± 0.028
AGCGAA | 1.96 ± 0.014 | 2.01 ± 0.03
AGCGAG | 1.886 ± 0.014 | 1.998 ± 0.012
AGCGAC | 1.99 ± 0.011 | 2.0338 ± 0.00013
GGCAGC | 2.001 ± 0.008 | 1.98 ± 0.032
GGCAGA | 2.077 ± 0.0039 | 2.033 ± 0.004
GGCAGG | 2.064 ± 0.015 | 2.045 ± 0.0058
GGCAGU | 2.058 ± 0.0031 | 2.013 ± 0.0043
AGAUAC | 1.983 ± 0.0026 | 2.022 ± 0.02
AGAUAG | 1.9299 ± 0.00079 | 2.01 ± 0.041
AGAUAU | 1.97 ± 0.011 | 2.04 ± 0.038
UGAUGC | 1.954 ± 0.013 | 1.998 ± 0.01
CGCCCC | 2.082 ± 0.017 | 2.04 ± 0.057
CGCCCA | 2.068 ± 0.0022 | 2.06 ± 0.033
CGCCCU | 2.09 ± 0.04 | 2.092 ± 0.017
CGCCCG | 2.03 ± 0.029 | 2.031 ± 0.0094
CGCUCA | 2.05 ± 0.022 | 2.038 ± 0.008
GGAUUG | 1.996 ± 0.0084 | 2.05 ± 0.053
GGAUUA | 2.014 ± 0.0063 | 2.0315 ± 0.0011
UGCCCA | 2.007 ± 0.0092 | 1.99 ± 0.018
UGCCCC | 2.03 ± 0.04 | 2.01 ± 0.07
UGCCCG | 1.95 ± 0.022 | 2.01 ± 0.07
UGCCCU | 2.061 ± 0.0087 | 2.06 ± 0.043
UGCGCC | 2.07 ± 0.015 | 2.043 ± 0.0087
UGCGCG | 1.81 ± 0.046 | 1.99 ± 0.056
UGCGCA | 1.951 ± 0.002 | 1.98 ± 0.033
